In PMC6863750 (Nature cell biology, 2018):

What was measured:
[1] = target: purified recombinant Rac1 Q61L (analyte in SPR) (UniProt P63000 1-192, Q61L); experiment: SPR
[2] = target: His-Rac1 Q61L (immobilised in SPR) (UniProt P63000 1-192, Q61L); experiment: SPR

B1: GST-CYRI-B RBD (domain or fragment)
chain: ESEKEIYNQVNVVLKDAEGILEDLQSYRGAGHEIREAIQHPADEKLQEKAWGAVVPLVGKLKKFYEFSQRLEAALRGLLGALTSTPYSPTQHLEREQALAKQFAEILHFTLRFDELKMTNPAIQNDFSYYRRTLSRMRINNVPAEGENEVNNELANRMSLFYAEATPMLKTLSDATTKFVSENKNLPIENTTDCLSTMASVCRVMLE
B1 gave a Kd [1] of 27 µM.

B2: CYRI-B RBD (analyte in SPR) (domain or fragment)
chain: B1 chain
B2 was tested, and the Kd [2] was 22 µM.
